Measurements taken from PMC4737141.

Biological target: Recombinant human Tipin-His6 (human) (UniProt Q9BVW5)
Assay: SPR

UniProt Q9BVW5, sequence (Q9BVW5 whole entry): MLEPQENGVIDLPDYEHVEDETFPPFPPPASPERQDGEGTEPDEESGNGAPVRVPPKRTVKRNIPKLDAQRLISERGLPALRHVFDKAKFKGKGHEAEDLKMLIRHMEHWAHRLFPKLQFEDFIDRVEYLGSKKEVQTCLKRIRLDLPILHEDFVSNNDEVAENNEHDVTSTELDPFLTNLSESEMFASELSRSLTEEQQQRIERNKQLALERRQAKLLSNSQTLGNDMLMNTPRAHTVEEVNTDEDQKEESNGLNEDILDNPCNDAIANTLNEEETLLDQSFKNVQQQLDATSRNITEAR

Kd: 0.655 µM
Substance: Recombinant human DDX11-3xFLAG (from UniProt Q96FC9 1-970) (enzyme)
